Experimental data published in article PMC12282080 (2025).

B1: SD4-X monoclonal antibody (human IgG1) (antibody, V domains shown)
VH: QVQLVESGGGVVQPGRSLRLSCAASGFTFSSYGMHWVRQAPGKGLEWVAVISYDGSNKYYADSVKGRFTISRDNSKNTLYLQMNSLRAEDTAVYYCAKDRDYYGSGFFDYWGQGTLVTVSS
VL: DIQMTQSPSSLSASVGDRVTITCQASQDISNHLNWYQEKPGKVPKLLIYEASNVETGVPSRFSGSGSGTDFTFTISSLQPEDIATYYCQQYDNLPYTFGQGTKLEIK
B2: SD4-S monoclonal antibody (human IgG1) (antibody, V domains shown)
VH: QVQLVESGGGVLQPGRSLRLSCAASGFTFSGYGMHWVRQAPGKGLEWVAVISYDGSEKNYGDSVKGRFTISRDNSKNTLYLQINSLRTEDRAVYYCAKDRDYFGSGFFDYWGQGTLVTVSS
VL: DIQMTQSPSSLSASVGDRVTITCQASQDITKYLNWYQQKPGKAPKLLIFEASNLETGVPSRFSGSGSGTDFTFTISSLQPEDFATYYCQQYGDFPLTFGGGTKVEIK
B3: SD4 monoclonal antibody (human IgG1) (antibody, V domains shown)
VH: QVQLVESGGGVVQPGRSLRLSCAASGFPFSGYGMHWVRQAPGKGLEWVAVISYDGSEKNYADSVKGRFTISRDNSKNTLYLQMNSLRVEDTAVYYCAKDRDYYGSGFYDYWGQGTLVTVSS
VL: DIQMTQSPSSLSASVGDRVTITCQASQHISNHLNWYQQKPGTAPTLLIYEASNLETGVPSRFSGSGSGTDFSFTISSLRPEDFATYYCQQYDNFPLTFGPGTTMDIK
B4: SD12 monoclonal antibody (human IgG1) (antibody, V domains shown)
VH: EVQLLESGGGLVQPGGSLRLSCAASGFIFSSYAMSWVRQAPGKGLEWVSAISGSGGSTYYADSVKGRFTISRDNSKNTLYLQMNSLRDEDTAVYYCAKDRSYVSSGFFDDWGQGTLVTVSS
VL: DIQMTQSPSSLSASVGDRVTITCQASQDISNYLNWYQQRPGKAPKLLIFEASNLETGVPSRFSGSGSGTDFTFTISSLQPEDIATYYCQQYENLLYTFGQGTKLEIK
B5: SD22 monoclonal antibody (human IgG1) (antibody, V domains shown)
VH: QVQLVESGGGVVQPGRSLRLSCAASGFTFSGFGMHWVRQAPGKGLEWVALISYDGSDTYYSDSVKGRFTISRDNSKNTLYLQLKSLRPDDTAVYYCVGDRDYFGSGFFDHWGQGTLVTVSS
VL: DIQMTQSPSSLSASIGDRVTITCRASRHITNHLNWYQHKPGRAPKLLIYEASNLQAGVPSRFSGSGSGTDFTFTISSLQPEDFATYYCQQYDNLPPAFGGGTKVDIK

Legend:
[1] = target: T1, SFTSV Gn glycoprotein (G19-K452, C3 genotype) (SFTSV (severe fever with …)); assay: BLI
[2] = target: T1, SFTSV Gn glycoprotein (G19-K452, C3 …); assay: BLI; remark: listed apart in the source

Row | Binder | Kd [1] | koff [2]
1 | B1 | 1.11 nM | 0.000108 s⁻¹
2 | B2 | 0.196 nM | 2.9e-05 s⁻¹
3 | B3 | – | 1.18e-05 s⁻¹
4 | B4 | 2.37 nM | 0.000179 s⁻¹
5 | B5 | 0.205 nM | 4.01e-05 s⁻¹
